Test results taken from the supplement of paper PMC12783771.
± gives the standard deviation of the averaged measurements.

B1: library; a variant is named by its letters at X, in order (parent)
chain: MNIQIGELAKRTACPVVTIRFYEQEGLLPPPGRSRGNFRLYGEEHVERLQFIRHCRSLDMPLSDVRTLLSYRKRPDQDCGEVXMLLDEHIRQVESRIGALLELKHHLVELREACSGARPAQSCGILQXLSXCVCXTRGTTAHXSD

How the values were obtained:
[1] = variants of: B1; test: sfGFP reporter fluorescence (15 h) (µM FITC); higher = higher leak; details: library round: Round 2; ligand: none
Description: (§1)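 Cell-free biosensing: 1 µL Echo-assembled CFE reactions with linear PbrR variant templates (5 nM) and pPbrR-sfGFP reporter, with 1 µM Pb, 30 µM Zn or no ligand; endpoint sfGFP fluorescence after 15 h at 30 °C calibrated as µM FITC. Round 2 ML-predicted PbrR mutants; up to 3 biological replicates.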

[2] = variants of: B1; test: sfGFP reporter fluorescence (15 h) (µM FITC); higher = stronger transcriptional activation; details: library round: Round 2
Description: as §1

Variant | sfGFP reporter fluorescence [1] | sfGFP reporter fluorescence ([2]; ligand: 1 µM Pb) | sfGFP reporter fluorescence ([2]; ligand: 30 µM Zn)
SGDVP K104V | 0.067 ± 0.0056 | 0.134 ± 0.0074 | 1.3 ± 0.15
SGDDP I90L V108N | 0.0447 ± 0.0012 | 0.04614 ± 0.00039 | 0.0897 ± 0.013
NGDDP M60L P61N D64K K104V L107C | 0.716 ± 0.071 | 2.14 ± 0.18 | 3.11 ± 0.31
TGDRW | 0.0495 ± 0.00078 | 0.0726 ± 0.0038 | 0.205 ± 0.014
NIDDP M60L D64K R111L | 1.98 ± 0.27 | 3.14 ± 0.19 | 3.92 ± 0.41
TGDDP D64E V108N | 0.0416 ± 0.00051 | 0.0357 ± 0.0033 | 0.0616 ± 0.0048
TGDDW L126I | 0.0487 ± 0.0018 | 0.04581 ± 0.00039 | 0.0773 ± 0.00089
NGYPP V108I | 0.0743 ± 0.0068 | 0.149 ± 0.033 | 1.1 ± 0.074
NIDDP P61N D64K K104V L107A | 0.0923 ± 0.0059 | 0.215 ± 0.018 | 1.34 ± 0.1
NGDAP P61N V108E | 0.0745 ± 0.0048 | 0.129 ± 0.01 | 1.48 ± 0.14
NGTAT | 0.0539 ± 0.0037 | 0.0908 ± 0.0051 | 0.937 ± 0.052
TGSDY Q121A | 0.0567 ± 0.0051 | 0.0961 ± 0.0073 | 0.443 ± 0.056
TGNRA | 0.0608 ± 0.0044 | 0.107 ± 0.018 | 0.663 ± 0.059
NGCDP I125V L129M | 0.0493 ± 0.0017 | 0.0435 ± 0.0022 | 0.0493 ± 0.003
NHEDW | 0.0563 ± 0.0014 | 0.119 ± 0.014 | 0.842 ± 0.068
NGDDP | 0.0488 ± 0.0061 | 0.0602 ± 0.0046 | 0.684 ± 0.074
NGAKP L107V | 0.173 ± 0.011 | 0.513 ± 0.055 | 3.38 ± 0.24
NHCDL E109L | 0.0622 ± 0.0037 | 0.0798 ± 0.0072 | 0.512 ± 0.062
NHDDA E109L | 0.0459 ± 0.0013 | 0.0809 ± 0.0052 | 0.343 ± 0.014
NGDDP P61N L107C C134I | 2.22 ± 0.18 | 2.54 ± 0.38 | 3.82 ± 0.36
TGDRP L107C | 0.176 ± 0.016 | 1.17 ± 0.063 | 2.94 ± 0.2
TIDDP D64K K104V | 0.156 ± 0.022 | 0.472 ± 0.075 | 2.62 ± 0.29
TGHPY | 0.0455 ± 0.0011 | 0.116 ± 0.0064 | 0.214 ± 0.017

Variant | sfGFP reporter fluorescence [1] | sfGFP reporter fluorescence ([2]; ligand: 1 µM Pb) | sfGFP reporter fluorescence ([2]; ligand: 30 µM Zn)
TGADP V108L | 0.0451 ± 0.00078 | 0.0942 ± 0.0052 | 0.321 ± 0.0054
TGDDP R96A K104V | 0.052 ± 0.0012 | 0.0513 ± 0.0043 | 0.0712 ± 0.0018
NMDAK L107C | 2.86 ± 0.17 | 3.46 ± 0.15 | 3.68 ± 0.19
NICDP I125L | 0.0468 ± 0.0013 | 0.0446 ± 0.0014 | 0.0531 ± 0.0013
NGADT C134V | 0.103 ± 0.013 | 0.155 ± 0.03 | 2.64 ± 0.21
NGCDP M60L P61N D64K K104V | 0.179 ± 0.016 | 0.384 ± 0.049 | 1.39 ± 0.088
TGDAL V108L | 0.0451 ± 0.0016 | 0.073 ± 0.0021 | 0.281 ± 0.0062
NGADP M60L D64K | 1.59 ± 0.28 | 2.6 ± 0.28 | 3.98 ± 0.16
TGDDP D64T R111L | 0.0779 ± 0.0063 | 0.151 ± 0.011 | 1.9 ± 0.12
TGDDP D64T R111A | 0.09 ± 0.012 | 0.212 ± 0.024 | 2.38 ± 0.096
SGDDW V108L | 0.0515 ± 0.0023 | 0.0672 ± 0.0033 | 0.247 ± 0.031
TGDDY E112I | 0.0493 ± 0.0015 | 0.0522 ± 0.0014 | 0.076 ± 0.0028
TGDDP V82I L85K | 0.0407 ± 0.0021 | 0.0368 ± 0.00078 | 0.0458 ± 0.0007
TGDDP I97A K104G | 0.0644 ± 0.0063 | 0.155 ± 0.025 | 0.412 ± 0.04
TGDDP L107I E112A | 0.0475 ± 0.0007 | 0.131 ± 0.0047 | 0.511 ± 0.039
NGCDR K104R | 0.047 ± 0.0037 | 0.0672 ± 0.0019 | 0.0986 ± 0.0051
NIADP L107C | 2.06 ± 0.19 | 3.57 ± 0.56 | 3.67 ± 0.32
TGDDY V82I L129I | 0.0454 ± 0.0012 | 0.0463 ± 0.00051 | 0.0601 ± 0.013
NGDAL L110I | 0.0605 ± 0.0082 | 0.0575 ± 0.0038 | 0.953 ± 0.064
NIDDP I90L K104V L107C | 0.0665 ± 0.003 | 0.0702 ± 0.0034 | 0.178 ± 0.014
NGDAP E109D G124A | 0.0638 ± 0.0036 | 0.0745 ± 0.0045 | 0.474 ± 0.07
NMDAP L85I | 0.11 ± 0.012 | 0.278 ± 0.017 | 3.11 ± 0.44
NGDAP S130A T136A | 0.0512 ± 0.001 | 0.0834 ± 0.0067 | 1.11 ± 0.13

Variant | sfGFP reporter fluorescence [1] | sfGFP reporter fluorescence ([2]; ligand: 1 µM Pb) | sfGFP reporter fluorescence ([2]; ligand: 30 µM Zn)
NGDPP M84A R111A | 0.0671 ± 0.0045 | 0.0854 ± 0.013 | 0.919 ± 0.12
NGDDP M60L D64K E81A | 1.03 ± 0.075 | 2.19 ± 0.059 | 3.74 ± 0.22
TGCDT L129I | 0.0433 ± 0.0032 | 0.0464 | 0.0525 ± 0.0028
NGCDP D64K E112H | 0.108 ± 0.012 | 0.402 ± 0.043 | 1.44 ± 0.16
NGDDP D64K V108E R111L | 0.0746 ± 0.0031 | 0.165 ± 0.012 | 1.8 ± 0.29
NGDDP P61E D64K E112H | 0.157 ± 0.027 | 0.377 ± 0.021 | 1.95 ± 0.22
NGHAY | 0.0533 ± 0.003 | 0.0816 ± 0.0062 | 0.791 ± 0.037
TGHAP | 0.0614 ± 0.0048 | 0.0828 ± 0.0035 | 0.394 ± 0.061
NHCDA | 0.0569 ± 0.0056 | 0.0749 ± 0.0034 | 0.446 ± 0.063
SGDDP I90L D145A | 0.0442 ± 0.0022 | 0.046 ± 0.001 | 0.122 ± 0.0052
TGSDP V108L | 0.0452 ± 0.0017 | 0.0823 ± 0.0056 | 0.229 ± 0.022
NGADL L129V | 0.0491 ± 0.0012 | 0.0459 ± 0.00051 | 0.0502 ± 0.0022
TGSPP | 0.0436 ± 0.0022 | 0.125 ± 0.0052 | 0.305 ± 0.0072
TGDDA E25V | 0.0619 ± 0.0073 | 0.072 ± 0.0079 | 0.252 ± 0.031
NGADP M60L P61N D64K | 0.804 ± 0.17 | 1.38 ± 0.2 | 2.82 ± 0.43
NIAPP | 0.139 ± 0.0095 | 0.472 ± 0.03 | 2.03 ± 0.16
NGDDP P61N L107C E109H | 0.627 ± 0.1 | 1.51 ± 0.22 | 2.62 ± 0.31
NGDDP M60L P61N D64N | 0.291 ± 0.025 | 0.582 ± 0.11 | 2.53 ± 0.24
NGADY V133A | 0.0753 ± 0.0056 | 0.124 ± 0.0081 | 1.15 ± 0.1
NGDAM Q121A | 0.0666 ± 0.0079 | 0.106 ± 0.0059 | 1.36 ± 0.13
TIDDP L107C E109H | 0.247 ± 0.016 | 1.19 ± 0.15 | 2.03 ± 0.17
TGDPR E109L | 0.063 ± 0.0052 | 0.114 ± 0.0072 | 0.346 ± 0.039
TGDDM V108L | 0.0605 ± 0.0032 | 0.0645 ± 0.0026 | 0.209 ± 0.025

Variant | sfGFP reporter fluorescence [1] | sfGFP reporter fluorescence ([2]; ligand: 1 µM Pb) | sfGFP reporter fluorescence ([2]; ligand: 30 µM Zn)
NHDDL E109L I125L | 0.048 ± 0.0018 | 0.044 ± 0.0027 | 0.047 ± 0.0027
NIDDP I90L C134E | 0.0691 ± 0.0074 | 0.0913 ± 0.0088 | 1.77 ± 0.32
NHDDW E109L | 0.0479 ± 0.00051 | 0.0832 ± 0.0024 | 0.399 ± 0.045
TIDAP L107C G124A | 0.27 ± 0.037 | 1.38 ± 0.23 | 2.81 ± 0.45
NMDAA K104R L107C | 2.28 ± 0.3 | 3.13 ± 0.41 | 3.83 ± 0.4
TGDDT R111V | 0.048 ± 0.00067 | 0.0656 ± 0.0064 | 0.282 ± 0.033
TGDDT R111I | 0.0459 ± 0.00085 | 0.0556 ± 0.0012 | 0.201 ± 0.0085
NIDDP K104T L107E | 0.047 ± 0.0022 | 0.0442 ± 0.00085 | 0.0493 ± 0.0021
NGDAT L85I | 0.0427 ± 0.0024 | 0.0595 ± 0.0027 | 0.809 ± 0.019
NMDAP L101V K104V | 0.176 ± 0.024 | 0.55 ± 0.022 | 2.78 ± 0.34
NGDDP D64K K104V R111A | 0.0829 ± 0.0096 | 0.354 ± 0.017 | 2.2 ± 0.44
NHDAW | 0.0656 ± 0.0096 | 0.117 ± 0.0091 | 0.55 ± 0.081
MGSDA | 0.0442 ± 0.0017 | 0.0841 ± 0.0012 | 0.0513 ± 0.00078
NGDAR E112I | 0.0495 ± 0.0017 | 0.054 ± 0.002 | 0.35 ± 0.016
NGDAP M60L D64K | 1.45 ± 1.3 | 1.27 ± 0.82 | 3.35 ± 0.63
TGDDY I125L | 0.0486 ± 0.0014 | 0.0429 ± 0.0049 | 0.0494 ± 0.0015
NGDDP P61N D64K V108M | 0.154 ± 0.014 | 0.461 ± 0.026 | 2.33 ± 0.24
THDDW | 0.0458 ± 0.0021 | 0.0682 ± 0.011 | 0.0889 ± 0.0029
NGDDP D87E S95A K104V R111A | 0.0648 ± 0.0053 | 0.0918 ± 0.0068 | 0.74 ± 0.092
NGDDW L110I S115G | 0.0528 ± 0.0019 | 0.0476 ± 0.0019 | 0.325 ± 0.019
